Laboratory results published in IntAct's records for PubMed 17161399.

B1: Protein VAC14 homolog (Homo sapiens), Q08AM6 (parent)
chain: MNPEKDFAPLTPNIVRALNDKLYEKRKVAALEIEKLVREFVAQNNTVQIKHVIQTLSQEFALSQHPHSRKGGLIGLAACSIALGKDSGLYLKELIEPVLTCFNDADSRLRYYACEALYNIVKVARGAVLPHFNVLFDGLSKLAADPDPNVKSGSELLDRLLKDIVTESNKFDLVSFIPLLRERIYSNNQYARQFIISWILVLESVPDINLLDYLPEILDGLFQILGDNGKEIRKMCEVVLGEFLKEIKKNPSSVKFAEMANILVIHCQTTDDLIQLTAMCWMREFIQLAGRVMLPYSSGILTAVLPCLAYDDRKKSIKEVANVCNQSLMKLVTPEDDELDELRPGQRQAEPTPDDALPKQEGTASGGPDGSCDSSFSSGISVFTAASTERAPVTLHLDGIVQVLNCHLSDTAIGMMTRIAVLKWLYHLYIKTPRKMFRHTDSLFPILLQTLSDESDEVILKDLEVLAEIASSPAGQTDDPGPLDGPDLQASHSELQVPTPGRAGLLNTSGTKGLECSPSTPTMNSYFYKFMINLLKRFSSERKLLEVRGPFIIRQLCLLLNAENIFHSMADILLREEDLKFASTMVHALNTILLTSTELFQLRNQLKDLKTLESQNLFCCLYRSWCHNPVTTVSLCFLTQNYRHAYDLIQKFGDLEVTVDFLAEVDKLVQLIECPIFTYLRLQLLDVKNNPYLIKALYGLLMLLPQSSAFQLLSHRLQCVPNPELLQTEDSLKAAPKSQKADSPSIDYAELLQHFEKVQNKHLEVRHQRSGRGDHLDRRVVL

Variants of: B1
Details: with nos1_human NOS1, P29475
nos1_human NOS1, P29475, sequence (P29475 whole entry): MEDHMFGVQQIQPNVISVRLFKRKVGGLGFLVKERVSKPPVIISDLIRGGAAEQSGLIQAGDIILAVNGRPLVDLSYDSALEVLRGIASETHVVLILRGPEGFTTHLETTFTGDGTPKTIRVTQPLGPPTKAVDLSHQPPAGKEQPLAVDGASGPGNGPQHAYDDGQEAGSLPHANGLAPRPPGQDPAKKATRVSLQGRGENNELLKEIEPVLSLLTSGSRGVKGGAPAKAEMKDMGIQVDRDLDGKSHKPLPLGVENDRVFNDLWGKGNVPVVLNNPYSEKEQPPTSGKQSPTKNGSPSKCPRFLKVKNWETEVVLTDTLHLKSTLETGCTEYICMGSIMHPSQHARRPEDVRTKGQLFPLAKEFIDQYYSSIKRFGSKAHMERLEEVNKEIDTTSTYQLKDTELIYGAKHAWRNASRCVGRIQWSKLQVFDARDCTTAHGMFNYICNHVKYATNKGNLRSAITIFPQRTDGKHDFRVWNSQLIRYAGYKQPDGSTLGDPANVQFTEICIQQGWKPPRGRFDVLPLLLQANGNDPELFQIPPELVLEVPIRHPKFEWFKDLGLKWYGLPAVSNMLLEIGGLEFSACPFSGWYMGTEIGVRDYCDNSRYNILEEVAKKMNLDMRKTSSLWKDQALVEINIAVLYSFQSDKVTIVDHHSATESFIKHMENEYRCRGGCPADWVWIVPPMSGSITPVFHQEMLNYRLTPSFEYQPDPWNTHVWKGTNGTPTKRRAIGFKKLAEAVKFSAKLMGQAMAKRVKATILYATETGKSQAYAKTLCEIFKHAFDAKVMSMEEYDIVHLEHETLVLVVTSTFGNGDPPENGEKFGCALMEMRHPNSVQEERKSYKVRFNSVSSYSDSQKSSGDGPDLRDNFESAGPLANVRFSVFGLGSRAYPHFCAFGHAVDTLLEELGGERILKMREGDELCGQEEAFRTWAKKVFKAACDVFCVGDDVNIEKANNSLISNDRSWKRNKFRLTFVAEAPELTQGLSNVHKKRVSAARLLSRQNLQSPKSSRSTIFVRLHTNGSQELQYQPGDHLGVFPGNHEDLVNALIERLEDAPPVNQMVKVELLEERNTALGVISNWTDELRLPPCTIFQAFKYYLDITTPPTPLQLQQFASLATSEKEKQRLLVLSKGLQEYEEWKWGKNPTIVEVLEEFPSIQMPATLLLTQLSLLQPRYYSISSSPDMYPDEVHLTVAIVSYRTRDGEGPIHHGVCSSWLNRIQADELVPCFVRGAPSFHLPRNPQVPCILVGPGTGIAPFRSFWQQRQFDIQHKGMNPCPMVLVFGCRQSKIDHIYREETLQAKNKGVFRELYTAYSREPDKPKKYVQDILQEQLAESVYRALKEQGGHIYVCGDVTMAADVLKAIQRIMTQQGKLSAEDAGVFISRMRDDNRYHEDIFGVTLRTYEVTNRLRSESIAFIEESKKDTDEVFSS

effect of a mutation on the interaction	Variant
disrupting interaction	L776A
decreasing interaction	G773A
disrupting interaction	D774A

Variants of: B1
Details: with nos1_human NOS1, P29475
Remark: another data set of the same source

effect of a mutation on the interaction	Variant
disrupting interaction	D777A
